T1: human complement C2 (human, UniProt P06681 21-752)
T1 sequence: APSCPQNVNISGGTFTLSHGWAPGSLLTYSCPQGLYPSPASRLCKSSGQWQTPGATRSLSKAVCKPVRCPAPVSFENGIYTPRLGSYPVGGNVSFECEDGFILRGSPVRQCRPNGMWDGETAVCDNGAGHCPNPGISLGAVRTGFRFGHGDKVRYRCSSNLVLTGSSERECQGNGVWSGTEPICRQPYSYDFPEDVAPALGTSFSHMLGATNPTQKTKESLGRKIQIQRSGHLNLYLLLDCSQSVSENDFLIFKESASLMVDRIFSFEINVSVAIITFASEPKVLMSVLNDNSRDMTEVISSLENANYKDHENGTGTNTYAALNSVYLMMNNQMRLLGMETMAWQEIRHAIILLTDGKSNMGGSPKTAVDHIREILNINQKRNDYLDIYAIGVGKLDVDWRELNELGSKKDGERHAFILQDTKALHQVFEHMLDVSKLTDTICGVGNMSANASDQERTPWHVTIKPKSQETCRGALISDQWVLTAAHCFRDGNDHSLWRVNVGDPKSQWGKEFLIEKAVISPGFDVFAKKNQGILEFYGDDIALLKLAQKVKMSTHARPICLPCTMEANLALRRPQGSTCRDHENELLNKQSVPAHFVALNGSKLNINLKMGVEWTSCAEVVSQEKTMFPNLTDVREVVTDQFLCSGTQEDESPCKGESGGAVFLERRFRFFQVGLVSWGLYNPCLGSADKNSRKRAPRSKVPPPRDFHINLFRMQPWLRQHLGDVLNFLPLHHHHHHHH

T2: cynomolgus monkey C2 (cynomolgus monkey, UniProt G8F3W0 21-752)
T2 sequence: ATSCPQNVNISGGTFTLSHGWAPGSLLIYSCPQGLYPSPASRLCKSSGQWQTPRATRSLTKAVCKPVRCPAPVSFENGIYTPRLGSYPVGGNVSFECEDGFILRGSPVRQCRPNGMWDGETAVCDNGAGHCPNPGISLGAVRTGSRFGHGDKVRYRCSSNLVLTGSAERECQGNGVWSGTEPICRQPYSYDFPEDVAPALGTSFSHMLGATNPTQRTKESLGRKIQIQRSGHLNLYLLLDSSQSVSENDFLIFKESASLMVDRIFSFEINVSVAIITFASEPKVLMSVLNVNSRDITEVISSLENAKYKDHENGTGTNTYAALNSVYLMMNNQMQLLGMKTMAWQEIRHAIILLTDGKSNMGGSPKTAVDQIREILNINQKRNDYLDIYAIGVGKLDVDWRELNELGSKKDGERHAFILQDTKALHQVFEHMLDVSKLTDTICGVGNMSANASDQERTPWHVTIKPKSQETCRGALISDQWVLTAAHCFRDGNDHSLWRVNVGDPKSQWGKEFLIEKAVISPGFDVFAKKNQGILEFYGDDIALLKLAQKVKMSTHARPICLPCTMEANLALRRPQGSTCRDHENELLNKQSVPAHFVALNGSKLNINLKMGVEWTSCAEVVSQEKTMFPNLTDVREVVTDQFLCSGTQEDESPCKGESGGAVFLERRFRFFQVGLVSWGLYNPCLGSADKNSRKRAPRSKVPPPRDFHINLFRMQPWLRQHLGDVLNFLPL

T3: mouse C2 (mouse, UniProt P21180 19-760, limits assumed)
T3 sequence (looked up): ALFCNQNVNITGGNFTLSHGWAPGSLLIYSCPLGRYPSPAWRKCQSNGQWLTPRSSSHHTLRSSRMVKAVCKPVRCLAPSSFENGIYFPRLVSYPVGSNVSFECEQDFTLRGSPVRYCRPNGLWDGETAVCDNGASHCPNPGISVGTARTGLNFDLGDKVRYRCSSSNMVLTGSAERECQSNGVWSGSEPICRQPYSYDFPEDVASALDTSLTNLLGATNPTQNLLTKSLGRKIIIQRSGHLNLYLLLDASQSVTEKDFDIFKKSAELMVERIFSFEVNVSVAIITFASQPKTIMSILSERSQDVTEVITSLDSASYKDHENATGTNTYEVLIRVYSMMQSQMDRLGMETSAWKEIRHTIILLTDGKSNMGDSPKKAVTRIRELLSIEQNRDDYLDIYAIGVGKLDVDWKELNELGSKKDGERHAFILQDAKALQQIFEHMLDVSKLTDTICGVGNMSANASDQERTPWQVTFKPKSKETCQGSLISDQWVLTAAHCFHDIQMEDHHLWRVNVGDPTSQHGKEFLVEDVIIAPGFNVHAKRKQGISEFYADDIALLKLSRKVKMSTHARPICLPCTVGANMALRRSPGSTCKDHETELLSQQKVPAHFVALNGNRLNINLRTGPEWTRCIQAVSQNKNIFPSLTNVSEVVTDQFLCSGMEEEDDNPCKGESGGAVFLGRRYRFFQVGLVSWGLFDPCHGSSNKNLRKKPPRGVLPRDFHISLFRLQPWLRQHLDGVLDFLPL


Tests used:
human complement C2 [1] = target: T1, human complement C2; experiment: cell-based or functional assay
cynomolgus monkey C2 [2] = target: T2, cynomolgus monkey C2; experiment: cell-based or functional assay
human complement C2 [3] = target: T1, human complement C2; experiment: cell-based or functional assay; remark: listed apart in the source
cynomolgus monkey C2 [4] = target: T2, cynomolgus monkey C2; experiment: cell-based or functional assay; remark: listed apart in the source
cynomolgus monkey C2 [5] = target: T2, cynomolgus monkey C2; experiment: SPR, mAb captured, cyno C2 analyte, pH 6.0
Experimental: (§1) Surface plasmon resonance (SPR, Biacore) was used for all binding affinity analyses. In brief, goat anti-human IgG was directly immobilised onto the carboxymethyl dextran surface of CM5 sensorchips to approximately 12,000 RU using standard NHS/EDC chemistry at pH 5. The immobilised antibody surface was pre-conditioned with ten injections of polyclonal human IgG (Privigen 60 s) prepared at 1 μg/mL. Ligands (anti-C2 mAbs) were captured at the beginning of each cycle as described below. An adjacent spot or flow cell in which only Polyclonal IgG was capture was used as a reference surface. The goat anti-human IgG Fc antibody surface was regenerate in 100 mM H3PO4, injected for 45 seconds at the end of each cycle. Experiments were performed at 37° C. and the flow rate of each experiment was kept constant at 30 μL/min.
(§2) In addition to human C2, the pH dependent anti-C2 antibodies were also tested for their ability to bind to C2 from other mammalian species using the SPR methods described above in order to identify suitable surrogate species for in vivo testing. The antibodies were tested for binding at neutral pH against C2 from cynomolgus monkeys, mice, dogs, rabbits, rats, pigs, and sheep.

cynomolgus monkey C2 [6] = target: T2, cynomolgus monkey C2; experiment: SPR, mAb captured, cyno C2 analyte, pH 7.3
Experimental: as §1, §2

human complement C2 [7] = target: T1, human complement C2; experiment: SPR, mAb captured, C2 analyte, HBS-EP, pH 6.0
Experimental: as §1
The pH dependent anti-C2 antibodies and their germlined versions were tested for their affinity to C2 at pH 7.3 (neutral pH) and pH 6.0 (early endosome pH) using the SPR methods described above in HBS-EP buffer.

human complement C2 [8] = target: T1, human complement C2; experiment: SPR, mAb captured, C2 analyte, HBS-EP, pH 7.3
human complement C2 [9] = target: T1, human complement C2; experiment: SPR, mAb captured, C2 analyte, MHAs buffer, pH 7.3
Experimental: as §1
(§3) This buffer contains ammonium sulfate instead of sodium chloride.

human complement C2 [10] = target: T1, human complement C2; experiment: SPR, mAb captured, C2 analyte, MHAs buffer, pH 5.8, steady state
Experimental: as §1, §3

human complement C2 [11] = target: T1, human complement C2; experiment: SPR, mAb captured, C2 analyte, MHAs buffer, pH 6.0, steady state
Experimental: as §1, §3

mouse C2 = target: T3, mouse C2; experiment: SPR, mouse C2, pH 7.3; VWB = very weak binding, KD not determined

Binder | IC50, inhibition of human classical complement pathway (Wieslab assay) (human complement C2 [1]) | IC50, inhibition of human lectin complement pathway (Wieslab assay) (human complement C2 [1]) | IC50, inhibition of cynomolgus classical complement pathway (Wieslab assay) (cynomolgus monkey C2 [2]) | IC50, inhibition of cynomolgus lectin complement pathway (Wieslab assay) (cynomolgus monkey C2 [2]) | Kd (cynomolgus monkey C2 [5]) | Kd (cynomolgus monkey C2 [6]) | Kd (human complement C2 [7]) | Kd (human complement C2 [8]) | Kd (human complement C2 [9]) | Kd (human complement C2 [10]) | Kd (human complement C2 [11]) | binding result (mouse C2) | IC50, inhibition of human classical pathway (hemolysis assay) (human complement C2 [3]) | IC50, inhibition of cyno classical pathway (hemolysis assay), mean of three experiments (cynomolgus monkey C2 [4]) | IC50, inhibition of cyno classical pathway (hemolysis assay) (cynomolgus monkey C2 [4])
RF16-214G (antibody, V domains shown) VH: EVQLLESGGGLVQPGGSLRLSCAASGFTFSWYQMMWVRQAPGKGLEWVSRIYPSGGGTAYADSVKGRFTISRDNSKNTLYLQMNSLRAEDTAVYYCARDAGYGDNWGQGTLVTVSS VL: SYELTQPPSVSVSPGQTASITCSGDKLGEKYASWYQQKPGQSPVLVIYQDRKRPSGIPERFSGSNSGNTATLTISGTQAMDEADYYCQAWDTRAVVFGGGTKLTVLG | 20.3 nM | 6.4 nM | 135 nM | 223 nM | 111 nM | 41.5 nM | 53.9 nM | 25.1 nM | 176 nM | 3340 nM | 1480 nM | binds | 337 nM |  | 396 nM
RF16-203G (antibody, V domains shown) VH: EVQLLESGGGLVQPGGSLRLSCAASGFTFSRYYMMWVRQAPGKGLEWVSSIGSSGGTTNYADSVKGRFTISRDNSKNTLYLQMNSLRAEDTAVYYCAKGGMVLGVVNIWGQGTLVTVSS VL: SYELTQPPSVSVSPGQTASITCSGDKLGEKYVSWYQQKPGQSPVLVIYQDIKRPSGIPERFSGSNSGNTATLTISGTQAMDEADYYCQTWGTGGIQVFGGGTKLTVLG | 2030 nM | 33.2 nM | 14100 nM | 5780 nM |  | 485 nM |  | 506 nM |  |  |  | binds |  |  | 
RF16-242 (antibody, V domains shown) VH: EVQLLQSGAEVKKPGESLKISCKGSGYSFTSYWIGWVRQMPGKGLEWMGIIYPGDSDTRYSPSFQGQVTISADKSISTAYLQWSSLKASDTAMYYCARRGHYGDYFDYWGQGTLVTVSS VL: SYELTQPPSVSVSPGQTARITCSGDALPKKYAYWYHQKSGQAPVLVIYEDRRRPSEIPERFSGSSSGTMATLTITGAQVEDEGVYFCYSRDRAGNQRVFGGGTQLTVLG | 9.19 nM | 2.91 nM | 8.97 nM | 91.1 nM | 134 nM | 5.2 nM | 16 nM | 7 nM | 460 nM | 32000 nM | 11600 nM |  | 55.4 nM |  | 642 nM
RF16-242G (antibody, V domains shown, Germlined version of RF16-242) VH: EVQLVQSGAEVKKPGESLKISCKGSGYSFTSYWIGWVRQMPGKGLEWMGIIYPGDSDTRYSPSFQGQVTISADKSISTAYLQWSSLKASDTAMYYCARRGHYGDYFDYWGQGTLVTVSS VL: SYELTQPPSVSVSPGQTARITCSGDALPKKYAYWYQQKSGQAPVLVIYEDRRRPSGIPERFSGSSSGTMATLTISGAQVEDEADYYCYSRDRAGNQRVFGGGTQLTVLG | 26.3 nM | 3.19 nM | 19.3 nM | 275 nM | 132 nM | 4.4 nM | 14 nM | 6.7 nM | 558 nM | 47000 nM | 12000 nM | binds | 80.3 nM |  | 302 nM

The next lines start with results.

IC50, inhibition of human classical complement pathway (Wieslab assay) (human complement C2 [1]) | IC50, inhibition of human lectin complement pathway (Wieslab assay) (human complement C2 [1]) | IC50, inhibition of cynomolgus classical complement pathway (Wieslab assay) (cynomolgus monkey C2 [2]) | IC50, inhibition of cynomolgus lectin complement pathway (Wieslab assay) (cynomolgus monkey C2 [2]) | Kd (cynomolgus monkey C2 [5]) | Kd (cynomolgus monkey C2 [6]) | Kd (human complement C2 [7]) | Kd (human complement C2 [8]) | Kd (human complement C2 [9]) | Kd (human complement C2 [10]) | Kd (human complement C2 [11]) | binding result (mouse C2) | Binder | IC50, inhibition of human classical pathway (hemolysis assay) (human complement C2 [3]) | IC50, inhibition of cyno classical pathway (hemolysis assay), mean of three experiments (cynomolgus monkey C2 [4]) | IC50, inhibition of cyno classical pathway (hemolysis assay) (cynomolgus monkey C2 [4])
5.58 nM | 3.25 nM | 8.24 nM | 66.5 nM | 114 nM | 4.7 nM | 128 nM | 10 nM | 45.6 nM | 4060 nM | 1900 nM | binds | RF16-226G (antibody) heavy: not shown light: SYELTQPPSVSVSPGQTARITCSGDALTSKYVAWYQQKSGQAPVLVIYEDTRRPSGIPERFSGSSSGTMATLTISGAQVEDEADYYCYSTDASGHQRVFGGGTKLTVLGQPKAAPSVTLFPPSSEELQANKATLVCLISDFYPGAVTVAWKADSSPVKAGVETTTPSKQSNNKYAASSYLSLTPEQWKSHRSYSCQVTHEGSTVEKTVAPTECS | 230 nM | 176 nM | 
1.64 nM | 1.62 nM | 8.73 nM | 42.9 nM | 87.3 nM | 35.7 nM | 13 nM | 18.9 nM |  |  |  | binds | RF16-191G (antibody, V domains shown) VH: EVQLLESGGGLVQPGGSLRLSCAASGFTFSKYWMGWVRQAPGKGLEWVSSIYSSGGWTYYADSVKGRFTISRDNSKNTLYLQMNSLRAEDTAVYYCARRPRSFSGSYYRAFDIWGQGTMVTVSS VL: DIQMTQSPSSLSASVGDRVTITCRASQSITDYLNWYQQKPGKAPKLLIYAASSLQSGVPSRFSGSGSGTDFTLTISSLQPEDFATYYCQQSYSSSITFGQGTRLDLKR | 94 nM |  | 213 nM
